According to patent publication US20100209426A1, “INHIBITORS OF PROGASTRIN-INDUCED REPRESSION OF ICAT FOR TREATING AND/OR PREVENTING COLORECTAL CANCER, ADENOMATOUS POLYPOSIS OR METASTASIS DISPLAYING PROGASTRIN-SECRETING CELLS AND CELLS IN WHICH THE BETA-CATENIN/TCF-MEDIATED TRANSCRIPTIONAL PATHWAY IS CONSTITUTIVELY ACTIVE” (INSERM (INSTITUT NATIONAL DE LA SANTE ET DE LA REC HERCHE …, priority 2006, published 2010):
Where no end group is shown, it is not given here.

How the values were obtained:
[1] = tested on: SW480 cells; experiment: Differentiation and apoptosis of SW480 cells after transient siRNA transfection; format: cell-based, human
Description: The day before transfection, SW480 cells were seeded in 24-well plates (5×10^4 cells/well). Cells were transfected with 100 pmol of rhodamine tagged GAS-specific or β-galactosidase-specific […], and 5 μl/well of Exgen 500 (Euromedex), according to the manufacturer's instructions. 48 hr or 72 hr after transfection, cells were lysed (for immunoblotting and PCR) or fixed in 1% paraformaldehyde for immunostaining.
2.5 μg of total RNA was pretreated with DNAse RQ1 (Promega) for 30 min at 37° C. and used for reverse transcription with M-MLV reverse transcriptase (In vitrogen). Quantitative PCR was carried out using the LightCycler FastStart DNA MasterPlus SYBR Green I kit (Roche Diagnostics, Meylan, France), under the following conditions: Actin: denaturation during 10 min at 95° C., amplification for 50 cycles: 10 sec at 95° C., 6 sec at 58° C., 11 sec at 72° C. Melting curve: 0 sec at 95° C., 30 sec at 68° C., 0 sec at 95° C. and cooling was for 2 min at 40° C.: c-myc, ILK, chromogranin A and GAPDH amplification: denaturation during 10 min at 95° C., amplification for 50 cycles: 10 sec at 70° C., 6 sec at 58° C., 13 sec at 72° C. The melting curve was 0 sec at 95° C., 30 sec at 80° C., 0 sec at 95° C. and cooling was for 2 min at 40° C. Progastrin, Muc-2, ALP and ICAT amplification: denaturation during 10 min at 95° C., amplification during 50 cycles with: 10 sec at 70° C., 6 sec at 95° C., 11 sec at 72° C. The melting curve was 0 sec at 95° C., 30 sec at 80° C., 0 sec at 70° C. and cooling was for 2 min at 40° C. Primers used for amplification of selected genes were: GAPDH-sense: 5′[…]3′ (SEQ ID No 9) antisense: 5′[…]3′ (SEQ ID No 10); Actin-sense: 5′[…]3′ (SEQ ID No 11); antisense: 5′[…]3′ (SEQ ID No 12); ILK-sense: 5′[…]3′ (SEQ ID No 13); antisense: 5′ […]3′ (SEQ ID No 14); ICAT-sense: 5′[…]3′ (SEQ ID No 15); antisense: 5′[…]3′ (SEQ ID No 16); c-myc-sense: 5′[…]3′ (SEQ ID No 17); antisense: 5′[…]3′ (SEQ ID No 18); human progastrin-sense: 5′[…]3′ (SEQ ID No 19); antisense: 5′[…]3′ (SEQ ID No 20); Muc-2-sense: 5′[…]3′ (SEQ ID No 21); antisense: 5′[…]3′ (SEQ ID No 22); Alkaline Phosphatase-sense: 5′[…]3′ (SEQ ID No 23); antisense: 5′[…]3′ (SEQ ID No 24); Chromogranin A-sense: 5′[…]3′ (SEQ ID No 25); antisense: 5′[…]3′ (SEQ ID No 26).
(§1) Immunofluorescent staining was performed as described previously (Hollande et al., 2003) Slides were then observed using a laser scanning LEICA sp2 confocal microscope with a x40 oil immersion lens.

[2] = tested on: β-catenin/Tcf-4 transcriptional activity; experiment: TOP/FOP Luciferase reporter gene assay in SW480 cells; format: cell-based
Description: The protocol used to measure the transcriptional activity of TCF/LEF-1 was described before (Morin et al., 1997). Briefly, cells were transfected with 500 ng of TCF/LEF-1 reporter (pTOP-FLASH), or control vector (pFOP-FLASH) and with 25 ng pCMV-Renilla. Luciferase activity was quantified using the Dual luciferase reporter assay system (Promega), and was normalized relative to the activity of Renilla.

[3] = tested on: ICAT; experiment: ICAT expression in SW480 cells (RT-QPCR, immunoblotting); format: cell-based, human
Description: (§2) 2.5 μg of total RNA was pretreated with DNAse RQ1 (Promega) for 30 min at 37° C. and used for reverse transcription with M-MLV reverse transcriptase (In vitrogen). Quantitative PCR was carried out using the LightCycler FastStart DNA MasterPlus SYBR Green I kit (Roche Diagnostics, Meylan, France), under the following conditions: Actin: denaturation during 10 min at 95° C., amplification for 50 cycles: 10 sec at 95° C., 6 sec at 58° C., 11 sec at 72° C. Melting curve: 0 sec at 95° C., 30 sec at 68° C., 0 sec at 95° C. and cooling was for 2 min at 40° C.: c-myc, ILK, chromogranin A and GAPDH amplification: denaturation during 10 min at 95° C., amplification for 50 cycles: 10 sec at 70° C., 6 sec at 58° C., 13 sec at 72° C. The melting curve was 0 sec at 95° C., 30 sec at 80° C., 0 sec at 95° C. and cooling was for 2 min at 40° C. Progastrin, Muc-2, ALP and ICAT amplification: denaturation during 10 min at 95° C., amplification during 50 cycles with: 10 sec at 70° C., 6 sec at 95° C., 11 sec at 72° C. The melting curve was 0 sec at 95° C., 30 sec at 80° C., 0 sec at 70° C. and cooling was for 2 min at 40° C. […]
(§3) Protein lysates, immunoprecipitations and immunoblotting were performed as described before (Hollande et al., 2003) Proteins were visualized using ECL Plus (Amersham Biosciences) and the bands were quantified by densitometry using ImageJ 1.32J (NIH, Bethesda, Md.).

[4] = tested on: SW480 cells; experiment: Tumor formation of SW480 cells injected subcutaneously in BALB/c nude mice; format: in vivo, mouse; details: SW480/GAST(−) cells stably expressing shRNA, subcutaneous injection in Balbc/nude mice, within 7 weeks, versus SW480/βgal(−)
Source text: Transfection of gastrin gene antisense and control cDNA into DLD1 cell lines was described in (Hollande et al., 2003). In order to generate progastrin shRNA, the following oligonucleotides were cloned into pSilencer vector (Ambion) and transfected in SW480 cells: sense: 5′-[…] TT-3′ (SEQ ID No 1) and antisense: 5′-[…] 3′ (SEQ ID No 2). β-galactosidase oligonucleotides used to generate control shRNA were: sense: 5′ […] 3′ (SEQ ID No 3); antisense 5′[…] 3′ (SEQ ID No 4). 5×10^4 cells/well were seeded and transfected 24 h later with 500 ng of pSilencer/progastrin-shRNA or pSilencer/β-galactosidase-shRNA, 50 ng of pcDNA-3, and 5 μl/well of Exgen 500 (Euromedex). Selection was performed with Neomycin (500 ng/μl).
In vivo experiments were performed following the French guidelines for experimental animal studies (Direction des Services Vétérinaires, Ministére de l'Agriculture, Agreement N^oB34-172-27) and fulfill the UKCCCR guidelines for the welfare of animals in experimental neoplasia. 2×10^6 cells were injected subcutaneously into 6-weeks-old athymic BALB/c-nu/nu (nude) mice. Tumor growth was followed regularly thereafter (Estimated tumor volume=(Length×width×thickness)/2).

[5] = tested on: ILK; experiment: ILK expression and immune complex kinase assay in SW480 cells; format: cell-based, human; details: SW480/GAST(−) cells, 5 nM recombinant progastrin
Description: as §3
The reaction was started by the addition of 25 μl of kinase buffer (50 mM Hepes pH 7.0, 1 mM MnCl2, 1 mM Na orthovanadate, 2 mM NaF, 5 μg Myelin Basic Protein (Sigma)) with 0.5 μg of ATP ([…], 1 μCi[γ-^32P]ATP) per tube, and incubated at 30° C. for 20 min. The reaction was terminated with the addition of 10 μl of 4× sample buffer. The tubes were centrifuged at 10,000 g for 1 min and the proteins were resolved on a 14% SDS-page gel. Phosphorylation of the substrate was visualized by autoradiography (Marotta et al., 2003).

[6] = tested on: β-catenin/Tcf-4 and β-catenin/ICAT association; experiment: Co-immunoprecipitation of dephosphorylated β-catenin with Tcf-4 and ICAT in SW480 cells; format: cell-based, human; details: SW480/GAST(−) cells treated with recombinant progastrin
Description: as §3

[7] = tested on: Tcf-4 target genes (c-myc, cyclin D1, Sox-9 and claudin-1); experiment: Expression of Tcf-4 target genes in SW480/GAST(−) cells; format: cell-based, human; details: progastrin-depleted SW480/GAST(−) cells, treatment with the recombinant peptide (5 nM, 72 h)
Description: as §2, §3

[8] = tested on: nuclear compartmentation of β-catenin and Tcf-4; experiment: Immunofluorescent staining of β-catenin and Tcf-4 in SW480 cells; format: cell-based, human; details: SW480/GAST(−) cells, 5 nM recombinant progastrin
Description: as §1

[9] = tested on: Akt/PKB; experiment: Ser473 phosphorylation of Akt/PKB in SW480 cells (Western blotting); format: cell-based, human; details: SW480/GAST(−) cells, 5 nM recombinant progastrin
Description: as §3

[10] = transient transfection with siRNA
[11] = treatment of CRC cells with short gastrin forms or CCK-B receptor antagonist (FIG. S2)
[12] = amidated and glycine-extended gastrins

GAST-specific siRNA oligonucleotides: rhodamine-tagged siRNA directed against the human GAST gene; siRNAs hPG sense 5′-GAAGAAGCCUAUGGAUGGATT-3′ (SEQ ID No 27), antisense SEQ ID No 28 (antisense UCCAUCCAUAGGCUUCUUCTT; rhodamine-tagged siRNA, tag position not given here)
caspase-3 activation [1, 10]: detection of caspase-3 activation | expression of genes encoding chromogranin A or enterocyte-specific alkaline phosphatase [1, 10]: without detectable alterations | expression of the goblet cell-specific gene Muc-2 ([1]; transient transfection with siRNA, versus β-galactosidase siRNA): significant induction

Cc1cccc(NC(=O)N[C@@H]2N=C(c3ccccc3)c3ccccc3N(C)C2=O)c1 [L365, 260]
β-catenin/Tcf-4 activity [2, 11]: did not affect

COc1cccc(-c2cc(=O)c3ccccc3o2)c1N [PD98059]
β-catenin/Tcf-4 activity ([2]; SW480 cells, 1 μM PD98059 (ERK1/2 pathway inhibition)): did not affect | ICAT expression ([3]; SW480 cells, 1 μM PD98059): did not affect

amidated gastrin17: COOH terminally amidated gastrin, maturation product of progastrin (QGPWLEEEEEAYGWMDF-NH2; ends and bridges not checked) [reference compound]
differentiation and apoptosis phenotypes of GAST siRNA-transfected cells [1, 12]: had no effect | β-catenin/Tcf-4 activity [2, 11]: did not affect

CC(C)(C)n1nc(-c2ccc(Cl)cc2)c2c(N)ncnc21 [PP2]
β-catenin/Tcf-4 activity ([2]; SW480 cells, 10 μM PP2 (Src pathway inhibition)): did not affect | ICAT expression ([3]; SW480 cells, 10 μM PP2): did not affect

B1: short hairpin RNA (shRNA), directed against the GAST gene: progastrin shRNA, oligonucleotides SEQ ID No 1 and SEQ ID No 2 cloned into pSilencer vector, stably expressed in SW480 cells (nucleic acid)
DNA 1: GAAGAAGCCTATGGATGGATTCAAGAGAAGGTAGGTATCCGAAGAAGTTTTTT
DNA 2: AATTAAAAAACTTCTTCGGATACCTACCTTCTCTTGAATCCATCCATAGGCTTCTTCGGCC
ability to form tumors [4]: greatly reduced

B2: recombinant progastrin: full-length progastrin (1-80) prohormone encoded by the GAST gene; recombinant peptide or secreted by CRC cells (protein)
chain: SWKPRSQQPDAPLGTGANRDLELPWLEQQGPASHHRRQLGPQGPPHLVADPSKKQGPWLEEEEEAYGWMDFGRRSAEDEN
decrease of expression and activity of ILK [5]: partially reversed | binding partner of β-catenin (Tcf-4 versus ICAT) [6]: preferentially bound to Tcf-4 | differentiation and apoptosis phenotypes of GAST siRNA-transfected cells ([1]; recombinant progastrin for 48 h): reversed | expression of Tcf-4 target genes (c-myc, cyclin D1, Sox-9 and claudin-1) [7]: significantly stimulated | nuclear compartmentation of β-catenin and Tcf-4 [8]: partially restored | β-catenin/Tcf-4 transcriptional activity (TOP/FOP luciferase reporter) ([2]; SW480/GAST(−) clones, 5 nM recombinant progastrin, 72 h): restore a strong level of transcription | serine 473-phosphorylation of Akt/PKB [9]: reinstated | ICAT expression ([3]; SW480/GAST(−) cells, 5 nM recombinant progastrin): De novo repression

B3: glycine-extended gastrin17: glycine-extended gastrin, one of the products of progastrin maturation (peptide)
peptide: SWKPRSQQPDAPLGTGANRDLELPWLEQQGPASHHRRQLGPQGPPHLVADPSKKQGPWLEEEEEAYGWMDFGRRSAEDEN
differentiation and apoptosis phenotypes of GAST siRNA-transfected cells [1, 12]: had no effect | β-catenin/Tcf-4 activity [2, 11]: did not affect
